# Values of other authors in patent US20250282866A1, “TREATMENT OF DISEASES RELATED TO ATP-BINDING CASSETTE TRANSPORTER 1 DYSFUNCTION USING TREM2 AGONISTS” (VIGIL NEUROSCIENCE, INC., priority 2020, published 2025).
# Substitutions are numbered along the chain they refer to. In names and notes the source's numbering stands.
# T1: human TREM2 (Homo sapiens, UniProt Q9NZC2)
# T1 sequence (Q9NZC2 19-230): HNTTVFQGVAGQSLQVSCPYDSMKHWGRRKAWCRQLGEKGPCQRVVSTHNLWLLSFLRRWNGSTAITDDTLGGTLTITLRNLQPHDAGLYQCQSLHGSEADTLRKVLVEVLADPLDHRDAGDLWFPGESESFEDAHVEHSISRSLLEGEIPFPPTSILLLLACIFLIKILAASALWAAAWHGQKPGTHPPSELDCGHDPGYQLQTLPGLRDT
# B1: V40: 6E7 variant: VH T30G, T58V, F110S; VL N56L, S93R (antibody, V domains shown)
# VH: EVQLVQSGAEVKKPGESLKISCKGSGYSFGSYWIAWVRQMPGKGLEWMGIIYPGDSDVRYSPSFQGQVTISADKSISTAYLQWSSLKASDTAMYFCARQRTFYYDSSDYSDYWGQGTLVTVSS
# VL: DIQMTQSPSSVSASVGDRVTITCRASQGISSWLAWYQQKPGKAPKLLIYAASSLQLGVPSRFSGSGSGTDFTLTISSLQPEDFATYFCQQADRFPRTFGQGTKLEIK
# B2: V72: 6E7 variant: VH A35G, Q99G; VL Q55V, F94Y (antibody, V domains shown)
# VH: B1 VH with G30T, A35G, V58T, Q99G, S110F
# VL: B1 VL with Q55V, L56N, R93S, F94Y
# B3: V75: 6E7 variant: VH Q99G; VL N56A, F94Y (antibody, V domains shown)
# VH: B1 VH with G30T, V58T, Q99G, S110F
# VL: B1 VL with L56A, R93S, F94Y
# B4: V62: 6E7 variant: VH T30G, S61A, D108G; VL N56R, Q89G (antibody, V domains shown)
# VH: B1 VH with V58T, S61A, D108G, S110F
# VL: B1 VL with L56R, Q89G, R93S
# B5: V48: 6E7 variant: VH T30G, T58V, Q99M; VL N56T, F94L (antibody, V domains shown)
# VH: B1 VH with Q99M, S110F
# VL: B1 VL with L56T, R93S, F94L
# B6: V51: 6E7 variant: VH T58V, Q99G, Y112N; VL L54R (antibody, V domains shown)
# VH: B1 VH with G30T, Q99G, S110F, Y112N
# VL: B1 VL with L54R, L56N, R93S
# B7: V50: 6E7 variant: VH T30G, I50V, F110L; VL L54R, F94L (antibody, V domains shown)
# VH: B1 VH with I50V, V58T, S110L
# VL: B1 VL with L54R, L56N, R93S, F94L
# B8: V84: 6E7 variant: VH S28G, F110S; VL A50G (antibody, V domains shown)
# VH: B1 VH with S28G, G30T, V58T
# VL: B1 VL with A50G, L56N, R93S
# B9: V49: 6E7 variant: VH T30N, I50T, Y60L, Q99S; VL L54R, F94Y (antibody, V domains shown)
# VH: B1 VH with G30N, I50T, V58T, Y60L, Q99S, S110F
# VL: B1 VL with L54R, L56N, R93S, F94Y
# B10: V74: 6E7 variant: VH T30A, T58V, Q99G; VL N56L (antibody, V domains shown)
# VH: B1 VH with G30A, Q99G, S110F
# VL: B1 VL with R93S
# B11: V60: 6E7 variant: VH S28H, T58V, F110S; VL N56R, Q89G (antibody, V domains shown)
# VH: B1 VH with S28H, G30T
# VL: B1 VL with L56R, Q89G, R93S
# B12: V73: 6E7 variant: VH T30G, S63G, Q99G; VL L54R, F94Y (antibody, V domains shown)
# VH: B1 VH with V58T, S63G, Q99G, S110F
# VL: B1 VL with L54R, L56N, R93S, F94Y
# B13: V64: 6E7 variant: VH T30Q, Q99G; VL Q55A, F94Y (antibody, V domains shown)
# VH: B1 VH with G30Q, V58T, Q99G, S110F
# VL: B1 VL with Q55A, L56N, R93S, F94Y
# B14: V52: 6E7 variant: VH T30E, Q99G; VL N56R, S93R (antibody, V domains shown)
# VH: B1 VH with G30E, V58T, Q99G, S110F
# VL: B1 VL with L56R
# B15: V76: 6E7 variant: VH T30G, S63E, F110S; VL N56K (antibody, V domains shown)
# VH: B1 VH with V58T, S63E
# VL: B1 VL with L56K, T69R, R93S
# B16: V63: 6E7 variant: VH T30R, Q99S; VL N56R, S93R (antibody, V domains shown)
# VH: B1 VH with G30R, V58T, Q99S, S110F
# VL: B1 VL with L56R
# B17: V61: 6E7 variant: VH T30S, S61N, Q99G; VL Q55V, F94L (antibody, V domains shown)
# VH: B1 VH with G30S, V58T, S61N, Q99G, S110F
# VL: B1 VL with Q55V, L56N, R93S, F94L
# Molecular target: T1, human TREM2
# Conditions: 1st screen; values printed without asterisk; concentration 110 nM or 10 nM (footnote a not given)
row,Binding Signal (fold over 6E7 Parental antibody) 1st screen 110 nM or 10 nM,Molecule
1,4.48 fold over 6E7 Parental antibod,B1
2,3.64 fold over 6E7 Parental antibod,B2
3,4.64 fold over 6E7 Parental antibod,B3
4,2.49 fold over 6E7 Parental antibod,B4
5,2.42 fold over 6E7 Parental antibod,B5
6,2.81 fold over 6E7 Parental antibod,B6
7,4.10 fold over 6E7 Parental antibod,B7
8,1.44 fold over 6E7 Parental antibod,B8
9,6.51 fold over 6E7 Parental antibod,B9
10,3.94 fold over 6E7 Parental antibod,B10
11,3.26 fold over 6E7 Parental antibod,B11
12,5.12 fold over 6E7 Parental antibod,B12
13,5.41 fold over 6E7 Parental antibod,B13
14,3.00 fold over 6E7 Parental antibod,B14
15,4.57 fold over 6E7 Parental antibod,B15
16,3.76 fold over 6E7 Parental antibod,B16
17,5.08 fold over 6E7 Parental antibod,B17

# Same assay, conditions: 2nd screen, 2 nM
row,Binding Signal (fold over 6E7 Parental antibody) 2nd screen 2 nM,Molecule
1,3.41 fold over 6E7 Parental antibod,B1
2,2.50 fold over 6E7 Parental antibod,B2
3,3.74 fold over 6E7 Parental antibod,B3
4,1.87 fold over 6E7 Parental antibod,B4
5,2.30 fold over 6E7 Parental antibod,B5
6,1.83 fold over 6E7 Parental antibod,B6
7,3.39 fold over 6E7 Parental antibod,B7
8,1.45 fold over 6E7 Parental antibod,B8
9,5.02 fold over 6E7 Parental antibod,B9
10,2.54 fold over 6E7 Parental antibod,B10
11,3.35 fold over 6E7 Parental antibod,B11
12,4.17 fold over 6E7 Parental antibod,B12
13,4.88 fold over 6E7 Parental antibod,B13
14,1.78 fold over 6E7 Parental antibod,B14
15,4.34 fold over 6E7 Parental antibod,B15
16,4.91 fold over 6E7 Parental antibod,B16
17,3.63 fold over 6E7 Parental antibod,B17

# Same assay, conditions: 2nd screen, 10 nM
row,Binding Signal (fold over 6E7 Parental antibody) 2nd screen 10 nM,Molecule
1,4.16 fold over 6E7 Parental antibod,B1
2,4.01 fold over 6E7 Parental antibod,B2
3,4.52 fold over 6E7 Parental antibod,B3
4,2.89 fold over 6E7 Parental antibod,B4
5,2.54 fold over 6E7 Parental antibod,B5
6,3.18 fold over 6E7 Parental antibod,B6
7,4.16 fold over 6E7 Parental antibod,B7
8,1.62 fold over 6E7 Parental antibod,B8
9,6.58 fold over 6E7 Parental antibod,B9
10,4.01 fold over 6E7 Parental antibod,B10
11,3.63 fold over 6E7 Parental antibod,B11
12,5.44 fold over 6E7 Parental antibod,B12
13,5.48 fold over 6E7 Parental antibod,B13
14,3.09 fold over 6E7 Parental antibod,B14
15,4.93 fold over 6E7 Parental antibod,B15
16,3.71 fold over 6E7 Parental antibod,B16
17,5.22 fold over 6E7 Parental antibod,B17
